Results on six substances are retold here after article PMC10179609.

A short description of series [1]: viscometry; falling ball micro viscometer, 20 °C, Tpm 1.0 mg/mL (15 µM), 30 mM HEPES-Na pH 7.3, 100 mM NaCl, 4 mM DTT; end-to-end (N- and C-ends) interaction of Tpm dimers. Conditions: other: viscometry.
Series [2] deals with F-actin (skeletal rabbit muscle actin) (rabbit) (UniProt P68135). The series can be described thus: co-sedimentation; with 1.5 μM TnT1 (fragment of human cardiac troponin T); 10 μM F-actin, Tpm 0 to 7.5 μM, 20 °C, 30 mM HEPES-Na pH 7.3, 255 mM NaCl; 100,000 g 40 min, SDS-PAGE of pellet and supernatant.
Series [3] has the same target. The series can be described thus: co-sedimentation; without TnT1; 10 μM F-actin, Tpm 0 to 7.5 μM, 20 °C, 30 mM HEPES-Na pH 7.3, 200 mM NaCl; 100,000 g 40 min, SDS-PAGE of pellet and supernatant.
Series [4] shares this target.
Series [5] has the same target. The series can be described thus: co-sedimentation; without TnT1; 10 μM F-actin, Tpm 0 to 7.5 μM, 20 °C, 30 mM HEPES-Na pH 7.3, 200 mM NaCl; 100,000 g 40 min, SDS-PAGE of pellet and supernatant. The source holds these as a separate data set.
For series [6] the target is unchanged. The series is described as follows: light scattering on heating; 20 μM phalloidin-stabilized F-actin, 10.5 μM Tpm, 30 mM HEPES-Na pH 7.3, 100 mM NaCl; 350 nm, heating 1 °C/min; Tdiss is the temperature of a 50% decrease in light scattering.
For series [7], the target named is α-chain of tropomyosin (αTpm, Tpm 1.1), single chain (human). The series can be described thus: cross-linking; ααTpm, κκTpm or their equimolar mixture heated to 70 °C, cooled, dimers cross-linked at SH groups with DTNB; SDS-PAGE without β-mercaptoethanol.

Like-named read-outs stand apart in the source and are kept apart here. Some results are limits rather than exact numbers.

With “ααTpm homodimer (alpha-tropomyosin, Tpm 1.1)”, in series [1], the “viscosity of the Tpm solution” value was found to be 0.41 ± 0.04 mPa·s.
Take “κκTpm homodimer (kappa-tropomyosin, Tpm 1.2) (natural protein)”: the K50% with TnT1 (Tpm concentration at half-saturation of F-actin) in series [2] was 0.88 µM. Also, the K50% (Tpm concentration at half-saturation of F-actin) turned out to be 2.37 µM in series [3] and 1.29 µM in series [5]. The reduction of the sliding velocity of F-actin (2.2 µm/s) in the in vitro motility assay in series [4] came to 30%. In series [6], this substance came in with a Tdiss (temperature of 50% dissociation of the complex with F-actin) of 42.1 °C.
Turning to “κ-chain of tropomyosin (κTpm, Tpm 1.2), single chain (natural protein)”, the share of heterodimers among the dimers formed from an equimolar mixture in series [7] was under 90%.
In series [2], ακTpm heterodimer (complex) displayed a K50% with TnT1 (Tpm concentration at half-saturation of F-actin) of 0.71 µM.
On to “ααTpm homodimer (alpha-tropomyosin, Tpm 1.1) (natural protein)”, for which the reduction of the sliding velocity of F-actin (2.2 µm/s) in the in vitro motility assay in series [4] came out at 50%. Further, the K50% (Tpm concentration at half-saturation of F-actin) in series [5] was 1.23 µM. The Tdiss (temperature of 50% dissociation of the complex with F-actin) in series [6] amounted to 45.9 °C.
For the substance “κκTpm homodimer (kappa-tropomyosin, Tpm 1.2)”, the “viscosity of the Tpm solution” value in series [1] is given as 0.09 ± 0.01 mPa·s.
